The record followed here is patent US20250326842A1 (BEIGENE SWITZERLAND, published 2025).

For test [1], the target named is T1, human PVRIG expressed on cells (human, UniProt Q6DKI7 41-326).
T1 construct: Jurkat cells engineered to express human PVRIG; also called hPVRIG-Jurkat; native human PVRIG
T1 sequence: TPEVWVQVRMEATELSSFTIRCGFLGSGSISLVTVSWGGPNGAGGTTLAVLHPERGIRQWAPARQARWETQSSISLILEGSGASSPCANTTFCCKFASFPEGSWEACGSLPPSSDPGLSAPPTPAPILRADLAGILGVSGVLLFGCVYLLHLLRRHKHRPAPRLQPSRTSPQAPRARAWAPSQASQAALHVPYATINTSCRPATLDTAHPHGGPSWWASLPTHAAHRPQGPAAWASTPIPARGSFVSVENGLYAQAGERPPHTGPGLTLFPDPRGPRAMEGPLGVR
Put plainly: FACS on human PVRIG-expressing cells.

Test [2] concerns the target T2, human PVRIG recombinant protein (human, UniProt Q6DKI7 41-171).
T2 construct: also called human PVRIG protein; recombinant human antigen PVRIG
T2 sequence: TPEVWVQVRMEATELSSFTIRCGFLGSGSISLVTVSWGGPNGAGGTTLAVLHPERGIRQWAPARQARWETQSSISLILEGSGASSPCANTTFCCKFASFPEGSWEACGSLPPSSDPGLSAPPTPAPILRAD
Nature of the test: ELISA, chimeric antibody on recombinant human PVRIG. A general note: In an ELISA, binding on a coated surface is turned into a signal by an enzyme label.

Test [3] addresses T2, human PVRIG recombinant protein. Put plainly: SPR, antibody captured via anti-human Fc, human PVRIG analyte. How it is done:
Chimeric anti-PVRIG antibodies were generated in human IgG1 format and characterized for binding kinetics by surface plasmon resonance (SPR) assays using BIAcore™ T-200 (GE Life Sciences). […] Then a serial dilution of human or Cyno PVRIG protein was flowed over the chip surface and changes in surface plasmon resonance signals were analyzed to calculate the association rates (kₒₙ) and dissociation rates (koff) by using the one-to-one Langmuir binding model (BIA Evaluation Software, GE Life Sciences). The equilibrium dissociation constant (KD) was calculated as the ratio koff/kₒₙ.

The target is the same in test [4]. The description is as above. The source says:
For affinity determination, antibodies were captured by anti-human Fc antibodies, and used in the affinity determination based on surface plasmon resonance (SPR) technology.
This is another data set of the same source.

The target in test [5] is T3, hPVRIG-ECD-his (human, UniProt Q6DKI7 41-171).
T3 construct: Acrobiosystems PVG-H52H4; also called hPVRIG-His; human PVRIG-His; not shown: His tag
T3 sequence: T2 sequence
Nature of the test: competition ELISA, antibody against PVRL2 on coated human PVRIG.

Test [6] deals with T4, Cyno PVRIG expressed on HEK293 cells (cynomolgus monkey).
T4 construct: also called native Cyno PVRIG
T4 chain: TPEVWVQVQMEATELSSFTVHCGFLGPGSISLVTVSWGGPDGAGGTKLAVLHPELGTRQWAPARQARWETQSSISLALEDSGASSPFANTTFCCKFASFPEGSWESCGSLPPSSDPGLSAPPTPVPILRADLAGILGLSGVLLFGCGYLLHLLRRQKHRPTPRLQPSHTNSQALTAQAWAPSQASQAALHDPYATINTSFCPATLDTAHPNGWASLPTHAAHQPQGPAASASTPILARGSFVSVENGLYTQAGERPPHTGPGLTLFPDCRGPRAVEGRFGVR
Nature of the test: flow cytometry on 293T cells expressing cyno PVRIG, anti-hFc-AF647 detection.

Test [7] has as its target T1, human PVRIG expressed on cells. Nature of the test: flow cytometry on Jurkat cells expressing human PVRIG, anti-hFc-AF647 detection. How it is done: To evaluate the binding activity of anti-PVRIG antibodies to native human PVRIG on living cells, Jurkat cells were engineered to express human PVRIG. Jurkat cells expressing human PVRIG were seeded in 96 well plates, and were incubated with serially diluted anti-PVRIG antibodies. […] EC50 values for dose dependent binding to human native PVRIG were determined by fitting the dose response data to the four-parameter logistic model with GraphPad Prism™.
Background: Flow cytometry measures light scatter and fluorescence of single cells or particles in a stream.

Test [8] concerns the target T3, hPVRIG-ECD-his. Put plainly: blocking ELISA: hPVRIG-His coated, antibody mixed with PVRL2-biotin at 1 ug/mL; % inhibition of PVRL2 binding.
Test [9] has as its target T2, human PVRIG recombinant protein. Put plainly: SPR, antibody captured via anti-human Fc, human PVRIG analyte. An excerpt: For affinity determination, antibodies were captured by anti-human Fe antibodies, and used in the affinity assay based on surface plasmon resonance (SPR) technology. […] Rmax represents the maximal feasible SPR signal generated by an interaction between a ligand-analyte pair and is represented in response units (RU).
The source holds these as a separate data set.

The target of test [10] is T1, human PVRIG expressed on cells. Put plainly: flow cytometry on Jurkat cells expressing human PVRIG, anti-hFc-AF647 detection. The protocol:
To evaluate the binding activity of anti-PVRIG antibodies to native PVRIG on living cells, Jurkat cells were engineered to express human PVRIG. Jurkat cells expressing human PVRIG were seeded in 96 well plates, and were incubated with serially diluted anti-PVRIG antibodies. […] EC50 values for dose dependent binding to human native PVRIG were determined by fitting the dose response data to the four-parameter logistic model with GraphPad Prism™.
This is another data set of the same source.

The target of test [11] is T3, hPVRIG-ECD-his. Put plainly: blocking ELISA: hPVRIG-His coated, antibody mixed with PVRL2-biotin at 1 ug/mL; % inhibition of PVRL2 binding. The source holds these as a separate data set.

Substitutions are numbered along the chain they refer to. Where two headings read alike, the source gives them in different places.

B1: BGA50 (antibody, V domains shown)
VH: EVQLQQSGPEPVKPGASVKISCKASGYSFTGYFLNWVKQSHGKSLEWIGRISPYNGDTFYNQKFKGKATLTVDKSSSTAHMELLSLTSEDSAVYYCGRSGSFTLFYAMDYWGQGTSVTVSS
VL: DIVMSQSPSSLAVSVGENITMTCKSSQSLFHSGNQKNYLAWYQQKPGQSPKLLIYWASTRESGVPDRFTGSGSETDFTLTISSVKAEDLAVYFCQQYYSYPITFGAGTKLELK
notes: also called BGA50-WT
For B1, in [1], it took 0.273 nM to reach a half-maximal effect (EC50) and the “binding Emax (MFI)” value is 2610 MFI. Besides, the EC50 (in general, the concentration that produces a half-maximal response) in test [2] amounted to 0.105 nM. Also, in test [3], the dissociation constant (Kd) (in general, the equilibrium constant for the complex coming apart) was found to be 0.147 nM; the koff – broadly, a measure of how fast the partners let go of each other – stood at 0.000652 s⁻¹; the kon (as a rule, the rate constant with which the complex forms) came to 4.45e+06 M⁻¹ s⁻¹. In addition, in test [4], the Kd stood at 0.0907 nM, the koff is 0.000519 s⁻¹ and the kon is 5.72e+06 M⁻¹ s⁻¹. In the test with hPVRIG-ECD-his [5], the IC50 (as a rule, the midpoint of a concentration-inhibition curve) was 1.09 nM and the “PVRIG/PVRL2 blocking Emax (% Inhibition)” value came out at 95.3%. For the same molecule, in [6], the EC50 (read off the curve) – broadly, the midpoint of the concentration-response curve – was ~0.02 µg/mL. Further, in test [7], the “EC50 (read off the curve)” value was ~0.03 µg/mL. Moreover, the “IC50 (read off the curve)” value with hPVRIG-ECD-his [8] is ~1 µg/mL.

B2: BGA121 (antibody, V domains shown)
VH: QVQLVQSGAEVKKPGASVKVSCKASGYTFTDYAMHWVRQAPGQSLEWMGVVLTHNDNTNYNQKFKARVTMTVDTSASTAYMELSSLRSEDTAVYYCAREVYYDFDDGNYFPMDYWGQGTLVTVSS
VL: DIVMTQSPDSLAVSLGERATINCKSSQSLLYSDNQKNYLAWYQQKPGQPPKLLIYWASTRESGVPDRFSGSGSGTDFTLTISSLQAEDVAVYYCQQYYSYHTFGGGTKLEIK
notes: Humanized BGA12
Consider B2, for which, in test [9], the Kd was 0.0524 nM, the koff stood at 0.00122 s⁻¹ and the kon came to 2.33e+07 M⁻¹ s⁻¹. For the same molecule, the concentration giving a half-maximal response (EC50 (read off the curve)) in test [10] was ~0.007 µg/mL. The “IC50 (read off the curve)” value with hPVRIG-ECD-his [11] is ~0.6 µg/mL.

B3: BGA122 (antibody, V domains shown)
VH: B2 VH
VL: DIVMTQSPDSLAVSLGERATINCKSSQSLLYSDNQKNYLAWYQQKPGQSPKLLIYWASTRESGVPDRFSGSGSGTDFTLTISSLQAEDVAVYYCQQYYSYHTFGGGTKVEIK
notes: Humanized BGA12; also called BGA122-WT
On to B3, for which, in [9], the equilibrium dissociation constant (Kd) turned out to be 0.0488 nM, the koff was determined as 0.00199 s⁻¹ and the on-rate constant (kon) was found to be 4.09e+07 M⁻¹ s⁻¹. In [10], the 50% effective concentration (EC50 (read off the curve)) was ~0.007 µg/mL. For the same molecule, the “IC50 (read off the curve)” value in the test with hPVRIG-ECD-his [11] is ~0.6 µg/mL.

B4: BGA502 (antibody, V domains shown)
VH: QVQLVQSGAEVKKPGASVKVSCKASGYSFTGYFLNWVRQAPGQGLEWIGRISPYQGDTFYNQKFKGRVTMTTDKSTSTAYMELRSLRSDDTAVYYCGRSGSFTLFYALDYWGQGTLVTVSS
VL: DIVMTQSPSSLAVSLGERATINCKSSQSLFHSGNQKNYLAWYQQKPGQSPKLLIYWASTRESGVPDRFSGSGSGTDFTLTISSLQAEDVAVYYCQQYYSYPITFGQGTKLEIK
notes: Humanized BGA50
For the molecule B4, in test [4], the Kd came out at 0.103 nM, the off-rate constant (koff) was found to be 0.000486 s⁻¹ and the kon is 4.71e+06 M⁻¹ s⁻¹. For the same molecule, the 50% effective concentration (EC50 (read off the curve)) in test [6] is ~0.007 µg/mL. In test [7], the “EC50 (read off the curve)” value is ~0.01 µg/mL. In addition, the “IC50 (read off the curve)” value with hPVRIG-ECD-his [8] was ~1 µg/mL.

B5: BGA503 (antibody, V domains shown)
VH: B4 VH with T72V
VL: B4 VL
notes: Humanized BGA50
B5: in test [4], the equilibrium dissociation constant (Kd) came to 0.12 nM, the dissociation rate constant (koff) came out at 0.000438 s⁻¹ and the kon turned out to be 3.66e+06 M⁻¹ s⁻¹. Further, the 50% effective concentration (EC50 (read off the curve)) in test [6] is ~0.007 µg/mL. The “EC50 (read off the curve)” value in test [7] was ~0.01 µg/mL. Moreover, the “IC50 (read off the curve)” value with hPVRIG-ECD-his [8] is ~0.8 µg/mL.

B6: BGA501 (antibody, V domains shown)
VH: B4 VH with L108I
VL: B4 VL
notes: Humanized BGA50; also called BGA501-WT
As for B6, in test [4], the Kd is 0.136 nM, the off-rate (koff) stood at 0.000436 s⁻¹ and the kon was 3.21e+06 M⁻¹ s⁻¹. The “EC50 (read off the curve)” value in test [6] is ~0.01 µg/mL. Besides, the “EC50 (read off the curve)” value in [7] is ~0.01 µg/mL. Also, the “IC50 (read off the curve)” value with hPVRIG-ECD-his [8] is ~1 µg/mL.
